Measured values from publication PMC5656893, “Regioselective para‐Carboxylation of Catechols with a Prenylated Flavin Dependent Decarboxylase” (Angewandte Chemie (International Ed. in English), 2017).

B1: EcAroY (Enterobacter cloacae) (protein)
chain: MQNPINDLRSAIALLQRHPGHYIETDHPVDPNAELAGVYRHIGAGGTVKRPTRTGPAMMFNSVKGYPGSRILVGMHASRERAALLLGCVPSKLAQHVGQAVKNPVAPVVVPASQAPCQEQVFYADDPDFDLRKLLPAPTNTPIDAGPFFCLGLVLASDPEDTSLTDVTIHRLCVQERDELSMFLAAGRHIEVFRKKAEAAGKPLPVTINMGLDPAIYIGACFEAPTTPFGYNELGVAGALRQQPVELVQGVAVKEKAIARAEIIIEGELLPGVRVREDQHTNTGHAMPEFPGYCGEANPSLPVIKVKAVTMRNHAILQTLVGPGEEHTTLAGLPTEASIRNAVEEAIPGFLQNVYAHTAGGGKFLGILQVKKRQPSDEGRQGQAALIALATYSELKNIILVDEDVDIFDSDDILWAMTTRMQGDVSITTLPGIRGHQLDPSQSPDYSTSIRGNGISCKTIFDCTVPWALKARFERAPFMEVDPTPWAPELFSDKK
notes: recombinant, purified from E. coli (UbiX co-expressed), reconstituted in vitro with prFMN and oxidised; UbiD family; homohexamer; about 495 residues
B2: KpAroY (Klebsiella pneumoniae subsp. pneumoniae MGH 78578) (protein)
chain: MTAPIQDLRDAIALLQQHDNQYLETDHPVDPNAELAGVYRHIGAGGTVKRPTRIGPAMMFNNIKGYPHSRILVGMHASRQRAALLLGCEASQLALEVGKAVKKPVAPVVVPASSAPCQEQIFLADDPDFDLRTLLPAPTNTPIDAGPFFCLGLALASDPDDASLTDVTIHRLCVQGRDELSMFLAAGRHIEVFRQKAEAAGKPLPITINMGLDPAIYIGACFEAPTTPFGYNELGVAGALRQRPVELVQGVSVPEKAIARAEIVIEGELLPGVRVREDQHTNSGHAMPEFPGYCGGANPSLPVIKVKAVTMRNNAILQTLVGPGEEHTTLAGLPTEASIWNAVEAAIPGFLQNVYAHTAGGGKFLGILQVKKRQPADEGRQGQAALLALATYSELKNIILVDEDVDIFDSDDILWAMTTRMQGDVSITTIPGIRGHQLDPSQTPEYSPSIRGNGISCKTIFDCTVPWALKSHFERAPFADVDPRPFAPEYFARLEKNQGSAK
notes: recombinant, purified from E. coli (UbiX co-expressed), reconstituted in vitro with prFMN and oxidised; UbiD family; about 495 residues

How the values were obtained:
[1] = substrate: O=C(O)c1ccc(O)c(O)c1; assay: decarboxylation kinetics, purified enzyme reconstituted in vitro with prFMN; format: biochemical, Enterobacter cloacae; details: apparent; prFMN iminium cofactor, after oxidative maturation
[2] = substrate: O=C(O)c1ccc(O)c(O)c1; assay: as above; format: biochemical, Klebsiella pneumoniae; details: apparent; prFMN iminium cofactor, after oxidative maturation

Row | Protein | Km [1] [µM] | kcat [1] | Km [2] [µM] | kcat [2]
1 | B1 | 61 ± 17 | 4.6±0.4 s^-1 (printed as v max ^app) | – | –
2 | B2 | – | – | 96 ± 23 | 4.7±0.4 s^-1 (printed as v max ^app)
